Data as given in patent US20150087577A1 (POLYPHOR, published 2015).
Bridges are numbered along the chain shown (N, C = ends). [ ]: non-standard residue; d: D form. 2Nal = N[C@@H](Cc1ccc2ccccc2c1)C(=O)O; Cit = NC(=O)NCCC[C@H](N)C(=O)O; Dab = NCC[C@H](N)C(=O)O

The binders below were run against human CXCR4 (human, UniProt P61073 1-352) (assay: cell-based or functional assay).
Chain of human CXCR4 (P61073 whole entry): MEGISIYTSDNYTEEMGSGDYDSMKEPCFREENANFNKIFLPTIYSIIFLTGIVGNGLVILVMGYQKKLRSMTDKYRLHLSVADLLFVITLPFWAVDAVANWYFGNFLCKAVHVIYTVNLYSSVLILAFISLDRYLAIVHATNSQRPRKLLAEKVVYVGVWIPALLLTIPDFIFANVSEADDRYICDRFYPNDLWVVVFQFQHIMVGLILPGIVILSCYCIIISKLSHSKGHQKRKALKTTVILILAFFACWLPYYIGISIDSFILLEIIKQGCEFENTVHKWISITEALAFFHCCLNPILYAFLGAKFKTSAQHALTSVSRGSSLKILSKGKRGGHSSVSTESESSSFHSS

IC50 (nM) Ca2+ assay (method 2) | Binder
1.7 nM | cyclo(YR[Cit]CRG[dP][Dab]R[2Nal]CY[Cit]K[dP]P) (disulfide 4-11; SMILES N=C(N)NCCC[C@@H]1NC(=O)[C@@H]2CSSC[C@H](NC(=O)[C@H](Cc3ccc4ccccc4c3)NC(=O)[C@H](CCCNC(=N)N)NC(=O)[C@H](CCN)NC(=O)[C@H]3CCCN3C(=O)CNC1=O)C(=O)N[C@@H](Cc1ccc(O)cc1)C(=O)N[C@@H](CCCNC(N)=O)C(=O)N[C@@H](CCCCN)C(=O)N1CCC[C@@H]1C(=O)N1CCC[C@H]1C(=O)N[C@@H](Cc1ccc(O)cc1)C(=O)N[C@@H](CCCNC(=N)N)C(=O)N[C@@H](CCCNC(N)=O)C(=O)N2) [Example 134]
5.3 nM | cyclo(YR[Cit]CRG[dP]RR[2Nal]CYTK[dP]P) (disulfide 4-11; SMILES C[C@@H](O)[C@@H]1NC(=O)[C@H](Cc2ccc(O)cc2)NC(=O)[C@@H]2CSSC[C@H](NC(=O)[C@H](CCCNC(N)=O)NC(=O)[C@H](CCCNC(=N)N)NC(=O)[C@H](Cc3ccc(O)cc3)NC(=O)[C@@H]3CCCN3C(=O)[C@H]3CCCN3C(=O)[C@H](CCCCN)NC1=O)C(=O)N[C@@H](CCCNC(=N)N)C(=O)NCC(=O)N1CCC[C@@H]1C(=O)N[C@@H](CCCNC(=N)N)C(=O)N[C@@H](CCCNC(=N)N)C(=O)N[C@@H](Cc1ccc3ccccc3c1)C(=O)N2) [Example 133]

Continued, binder first:

Binder | IC50 (nM) Ca2+ assay (method 2)
cyclo(YR[Cit]CRG[dP]RR[2Nal]CYTK[dP]P) (disulfide 4-11; SMILES C[C@@H](O)[C@@H]1NC(=O)[C@H](Cc2ccc(O)cc2)NC(=O)[C@@H]2CSSC[C@H](NC(=O)[C@H](CCCNC(N)=O)NC(=O)[C@H](CCCNC(=N)N)NC(=O)[C@H](Cc3ccc(O)cc3)NC(=O)[C@@H]3CCCN3C(=O)[C@H]3CCCN3C(=O)[C@H](CCCCN)NC1=O)C(=O)N[C@@H](CCCNC(=N)N)C(=O)NCC(=O)N1CCC[C@@H]1C(=O)N[C@@H](CCCNC(=N)N)C(=O)N[C@@H](CCCNC(=N)N)C(=O)N[C@@H](Cc1ccc3ccccc3c1)C(=O)N2) [Example 132] | 1.9 nM
cyclo(YRTCRG[dP]RR[2Nal]CY[Cit]K[dP]P) (disulfide 4-11; SMILES C[C@@H](O)[C@@H]1NC(=O)[C@H](CCCNC(=N)N)NC(=O)[C@H](Cc2ccc(O)cc2)NC(=O)[C@@H]2CCCN2C(=O)[C@H]2CCCN2C(=O)[C@H](CCCCN)NC(=O)[C@H](CCCNC(N)=O)NC(=O)[C@H](Cc2ccc(O)cc2)NC(=O)[C@@H]2CSSC[C@H](NC1=O)C(=O)N[C@@H](CCCNC(=N)N)C(=O)NCC(=O)N1CCC[C@@H]1C(=O)N[C@@H](CCCNC(=N)N)C(=O)N[C@@H](CCCNC(=N)N)C(=O)N[C@@H](Cc1ccc3ccccc3c1)C(=O)N2) [Example 131] | 2.4 nM
cyclo(YRQCRG[dP]RR[2Nal]CY[Cit]K[dP]P) (disulfide 4-11; SMILES N=C(N)NCCC[C@@H]1NC(=O)[C@@H]2CSSC[C@H](NC(=O)[C@H](Cc3ccc4ccccc4c3)NC(=O)[C@H](CCCNC(=N)N)NC(=O)[C@H](CCCNC(=N)N)NC(=O)[C@H]3CCCN3C(=O)CNC1=O)C(=O)N[C@@H](Cc1ccc(O)cc1)C(=O)N[C@@H](CCCNC(N)=O)C(=O)N[C@@H](CCCCN)C(=O)N1CCC[C@@H]1C(=O)N1CCC[C@H]1C(=O)N[C@@H](Cc1ccc(O)cc1)C(=O)N[C@@H](CCCNC(=N)N)C(=O)N[C@@H](CCC(N)=O)C(=O)N2) [Example 130] | 4.1 nM
